The source of these data is PMC5972661, “ECD1 functions as an RNA-editing trans-factor of rps14-149 in plastids and is required for early chloroplast development in seedlings”.

For data set [1], the target named is T1, MBP-ECD1 (UniProt Q5G1T1 51-850).
T1 sequence: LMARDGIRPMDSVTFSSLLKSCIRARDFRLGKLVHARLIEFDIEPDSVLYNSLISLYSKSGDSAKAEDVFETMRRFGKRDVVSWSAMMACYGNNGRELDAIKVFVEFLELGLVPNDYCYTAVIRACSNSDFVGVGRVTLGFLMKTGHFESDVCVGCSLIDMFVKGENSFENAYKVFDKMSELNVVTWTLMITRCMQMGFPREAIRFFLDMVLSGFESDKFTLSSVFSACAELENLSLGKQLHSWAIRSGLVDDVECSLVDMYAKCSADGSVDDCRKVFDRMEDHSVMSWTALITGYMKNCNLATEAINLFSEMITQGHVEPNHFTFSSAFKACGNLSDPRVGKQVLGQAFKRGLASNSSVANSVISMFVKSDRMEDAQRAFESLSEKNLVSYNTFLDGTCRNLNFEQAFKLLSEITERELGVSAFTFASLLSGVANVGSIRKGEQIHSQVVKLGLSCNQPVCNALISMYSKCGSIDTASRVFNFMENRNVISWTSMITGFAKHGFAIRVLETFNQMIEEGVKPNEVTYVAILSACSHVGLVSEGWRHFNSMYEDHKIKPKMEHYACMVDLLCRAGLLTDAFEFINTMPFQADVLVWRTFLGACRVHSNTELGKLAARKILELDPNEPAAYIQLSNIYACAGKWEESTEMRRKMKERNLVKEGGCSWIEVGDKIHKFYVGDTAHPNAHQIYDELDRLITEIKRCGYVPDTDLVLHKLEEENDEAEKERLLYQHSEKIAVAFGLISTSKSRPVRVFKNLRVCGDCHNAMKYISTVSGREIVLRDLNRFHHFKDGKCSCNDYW
The data set is described as follows: EMSA; 25, 50, 100 nM protein, 10 nM probe; LightShift Chemiluminescent RNA EMSA Kit (Thermo 20158), 20 min at 25 °C, 6% Tris-borate gel in 0.5x TBE; binding buffer, salt and pH not stated. The following applies: protein: recombinant; tags: N-terminal MBP; primer adds HHHHHH-ENLYFQG (TEV site); label: 5' biotin; single strand.

For data set [2], the target named is T1, MBP-ECD1. The data set is described as follows: EMSA; 25, 50, 100 nM protein, 10 nM probe; unlabeled same RNA (10-, 50-, 100-fold) used as competitor confirmed specificity; LightShift Chemiluminescent RNA EMSA Kit (Thermo 20158), 20 min at 25 °C, 6% Tris-borate gel in 0.5x TBE; binding buffer, salt and pH not stated. The settings on record: protein: recombinant; tags: N-terminal MBP; primer adds HHHHHH-ENLYFQG (TEV site); label: 5' biotin; single strand. On the technique in general: In EMSA bound probe runs differently from free probe, usually more slowly.

As for AAAUAUCAUUUGAUUCGUCGAUCCUCAAAAAAG (ssRNA) [rps14-80], the binding result with MBP-ECD1 [1] is recorded as “no binding”. Regarding GAAAAUUCAUGGAAAAUUACAAUCCCCACCGCG (ssRNA) [rps14-149], in the data set with MBP-ECD1 [2], the binding result was “binds”.
